Experiments:
[1] = system: PD-L1 expressing MDA-MB-231 cells; experiment: Cell binding analysis by FACS, MDA-MB-231 cells; format: cell-based; settings: 0.625 μg/ml complex or antibody (anti-PD-L1 antibody 1 μg/ml), negative control 69
Experimental: Cells incubated with buffer alone were used as negative controls. The cells were incubated for 1 h at 8° C. in the dark, washed twice with 100 μl staining buffer, and resuspended in 100 μl of staining buffer containing 2.5 μg/ml of a goat-anti-human IgG-Alexa488 (Molecular Probes, cat. no. A11013) or, for cells stained with the positive control antibody, goat anti-mouse IgG-Alexa647 antibody (Life Technologies, cat. No. A21236). The cells were incubated for 1 h at 8° C. in the dark, washed twice with 100 μl staining buffer and resuspended in 300 μl of staining buffer. Data from 10,000 cells were obtained using a FACS Calibur ([…]) and the data was analyzed using Flowing software 2.5.0 (Turku University). Mean fluorescence intensity (MFI) was used as a read out of binding capacity.

[2] = Circular dichroism (CD) spectroscopy, variable temperature measurement; format: physicochemical; settings: 1 mM EDTA, pH 7.2; for Tm (° C.): 0.5 mg/ml in 20 mM HEPES, VTM 20 to 90° C. at 221 nm; for refolding, CD spectra before and after heating to 90° C.: 20 mM HEPES
Experimental: Circular dichroism (CD) spectroscopy analysis: Two purified Z variants with a C-terminal cysteine, Z15168-Cys (SEQ ID NO:809) and Z15169-Cys (SEQ ID NO:810), were diluted to 0.5 mg/ml in 20 mM HEPES, 1 mM EDTA, pH 7.2. For each diluted Z variant, a CD spectrum at 250-195 nm was obtained at 20° C. In addition, a variable temperature measurement (VTM) was performed to determine the melting temperature (Tm). In the VTM, the absorbance was measured at 221 nm while the temperature was raised from 20 to 90° C., with a temperature slope of 5° C./min. A new CD spectrum was obtained at 20° C. after the heating procedure in order to study the refolding ability of the Z variants. The CD measurements were performed on a Jasco J-810 spectropolarimeter (Jasco Scandinavia AB) using a cell with an optical path length of 1 mm.
Circular dichroism (CD) spectroscopy analysis: A subset of the purified Hiss-tagged Z variants were analyzed by CD spectroscopy as described in Example 3, but with the exceptions that the analysis buffer was PBS and that the temperature was raised to 80° C. in the VTM.

[3] = system: MDA-MB-231 cells co-cultivated with PBMC; experiment: Co-culture of MDA-MB-231 and PBMC (mixed lymphocyte assay); format: cell-based; settings: six days co-culture with PBMC; 200-0.064 nM
Experimental: Co-culture of MDA-MB-231 and PBMC: A mixed lymphocyte assay was used to analyze if the Ipi-based complexes could affect proliferation or the cytotoxic effect of T-cells and thereby increase the elimination of cancer cells. Herein, peripheral blood mononuclear cells (PBMC) and MDA-MB-231 cells were co-cultivated for six days and the number of T-cells and cancer cells were assessed. 20000 MDA-MB-231 cells, cultivated in DMEM containing 10% FBS, were pipetted per well of a flat-bottomed 96-well plate and were left to adhere to the bottom of the well by incubation at 37° C. in a humidified 5% CO2 atmosphere. Day 2 of the experiment, serial dilutions (200-0.064 nM) of the Ipi-based complexes were prepared in a separate plate using RPM11640 with L-glut (Lonza) supplemented with 10% FCS, and 1% Pen-Strep (Lonza, cat. no. DE17-603E). The DMEM medium was discarded from the MDA-MB-231 cells and 100 μl of the diluted complexes were added. PBMC were prepared form a buffy coat using Ficoll Paque PLUS (GE Healthcare, cat no. 17-1440-02). In brief, the buffy coat was diluted 2× in PBS. […] The cells were counted and adjusted to 1 million cells per ml in supplemented RPMI medium. […] At day 7 of the experiment, the number of MDA-MD-231 cells and CD3+ T-cells were counted by FACS. […]

| Substance | MFI [1] | Tm (° C.) [2] | refolding, CD spectra before and after heating to 90° C. [2] | number of MDA-MB231 cells [3] |
| --- | --- | --- | --- | --- |
| Lam: control antibody having the same CDR sequences and specificity as PD-1 targeting pembrolizumab; SEQ ID NO:815 and 816 | 62 |  |  |  |
| Z15168-Cys: Z13091 mutated to start with AE instead of VD, with C-terminal addition of VDC |  | 50 °C | Reversible folding |  |
| Z15169-Cys: Z13156 mutated to start with AE instead of VD, with C-terminal addition of VDC |  | 58 °C | Reversible folding |  |
| ipilimumab [reference compound] |  |  |  | did not induce a concentration dependent decrease of the cancer cells |
